{"source": "patent US7432365B1", "about": "“DNA molecules encoding beta clamp proteins of gram positive bacteria” (priority 1998, dated 2008)", "key": {"[1]": {"system": "Pol II", "conditions": "0.15 M KCl; cited from earlier work"}, "[2]": {"target": "Pol III-L (Bacillus subtilis, UniProt P13267)", "sequence (P13267 whole entry)": "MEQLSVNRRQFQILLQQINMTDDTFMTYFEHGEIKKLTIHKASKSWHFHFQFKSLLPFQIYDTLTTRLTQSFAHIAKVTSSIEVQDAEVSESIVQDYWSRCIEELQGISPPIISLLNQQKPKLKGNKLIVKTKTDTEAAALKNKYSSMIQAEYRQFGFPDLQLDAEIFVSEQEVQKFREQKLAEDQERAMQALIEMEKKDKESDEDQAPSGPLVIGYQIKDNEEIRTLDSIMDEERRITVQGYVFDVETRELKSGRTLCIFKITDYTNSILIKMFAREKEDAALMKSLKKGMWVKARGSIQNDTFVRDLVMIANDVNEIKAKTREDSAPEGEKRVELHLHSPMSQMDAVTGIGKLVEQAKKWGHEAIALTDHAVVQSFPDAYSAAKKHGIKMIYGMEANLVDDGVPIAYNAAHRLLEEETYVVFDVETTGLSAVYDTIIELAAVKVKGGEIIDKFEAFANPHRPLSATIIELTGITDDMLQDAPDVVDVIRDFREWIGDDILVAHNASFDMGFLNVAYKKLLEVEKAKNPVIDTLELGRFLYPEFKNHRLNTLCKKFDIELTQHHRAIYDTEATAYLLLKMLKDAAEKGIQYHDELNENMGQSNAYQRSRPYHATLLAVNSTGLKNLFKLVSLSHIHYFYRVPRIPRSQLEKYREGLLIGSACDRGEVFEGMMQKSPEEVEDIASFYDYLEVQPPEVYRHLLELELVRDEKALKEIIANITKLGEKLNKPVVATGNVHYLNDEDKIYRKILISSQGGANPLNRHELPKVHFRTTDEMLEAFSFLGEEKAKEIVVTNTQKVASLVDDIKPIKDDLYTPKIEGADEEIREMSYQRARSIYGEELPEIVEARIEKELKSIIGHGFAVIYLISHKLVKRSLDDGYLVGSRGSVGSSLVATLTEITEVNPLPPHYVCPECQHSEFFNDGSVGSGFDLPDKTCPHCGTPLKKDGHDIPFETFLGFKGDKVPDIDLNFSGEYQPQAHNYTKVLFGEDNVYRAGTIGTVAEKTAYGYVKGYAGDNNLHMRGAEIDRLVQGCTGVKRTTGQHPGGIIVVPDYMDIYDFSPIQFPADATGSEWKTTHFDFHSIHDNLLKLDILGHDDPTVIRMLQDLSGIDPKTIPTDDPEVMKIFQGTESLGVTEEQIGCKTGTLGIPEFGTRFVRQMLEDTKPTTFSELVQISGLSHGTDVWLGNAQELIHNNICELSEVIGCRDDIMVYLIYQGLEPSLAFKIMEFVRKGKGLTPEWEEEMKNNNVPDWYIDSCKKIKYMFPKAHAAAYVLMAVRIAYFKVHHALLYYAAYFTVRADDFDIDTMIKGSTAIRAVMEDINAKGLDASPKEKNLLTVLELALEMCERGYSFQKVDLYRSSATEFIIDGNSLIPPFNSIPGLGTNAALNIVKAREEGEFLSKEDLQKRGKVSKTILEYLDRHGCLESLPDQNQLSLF", "conditions": "Pol III-L, 0.15 M KCl; cited from earlier work"}, "[3]": {"target": "Pol I (Bacillus subtilis, UniProt O34996)", "conditions": "0.15 M KCl; cited from earlier work"}, "[4]": {"target": "Escherichia coli DNA polymerase III core (Escherichia coli) (UniProt P10443)", "sequence (P10443 whole entry, chain 1 of 3)": "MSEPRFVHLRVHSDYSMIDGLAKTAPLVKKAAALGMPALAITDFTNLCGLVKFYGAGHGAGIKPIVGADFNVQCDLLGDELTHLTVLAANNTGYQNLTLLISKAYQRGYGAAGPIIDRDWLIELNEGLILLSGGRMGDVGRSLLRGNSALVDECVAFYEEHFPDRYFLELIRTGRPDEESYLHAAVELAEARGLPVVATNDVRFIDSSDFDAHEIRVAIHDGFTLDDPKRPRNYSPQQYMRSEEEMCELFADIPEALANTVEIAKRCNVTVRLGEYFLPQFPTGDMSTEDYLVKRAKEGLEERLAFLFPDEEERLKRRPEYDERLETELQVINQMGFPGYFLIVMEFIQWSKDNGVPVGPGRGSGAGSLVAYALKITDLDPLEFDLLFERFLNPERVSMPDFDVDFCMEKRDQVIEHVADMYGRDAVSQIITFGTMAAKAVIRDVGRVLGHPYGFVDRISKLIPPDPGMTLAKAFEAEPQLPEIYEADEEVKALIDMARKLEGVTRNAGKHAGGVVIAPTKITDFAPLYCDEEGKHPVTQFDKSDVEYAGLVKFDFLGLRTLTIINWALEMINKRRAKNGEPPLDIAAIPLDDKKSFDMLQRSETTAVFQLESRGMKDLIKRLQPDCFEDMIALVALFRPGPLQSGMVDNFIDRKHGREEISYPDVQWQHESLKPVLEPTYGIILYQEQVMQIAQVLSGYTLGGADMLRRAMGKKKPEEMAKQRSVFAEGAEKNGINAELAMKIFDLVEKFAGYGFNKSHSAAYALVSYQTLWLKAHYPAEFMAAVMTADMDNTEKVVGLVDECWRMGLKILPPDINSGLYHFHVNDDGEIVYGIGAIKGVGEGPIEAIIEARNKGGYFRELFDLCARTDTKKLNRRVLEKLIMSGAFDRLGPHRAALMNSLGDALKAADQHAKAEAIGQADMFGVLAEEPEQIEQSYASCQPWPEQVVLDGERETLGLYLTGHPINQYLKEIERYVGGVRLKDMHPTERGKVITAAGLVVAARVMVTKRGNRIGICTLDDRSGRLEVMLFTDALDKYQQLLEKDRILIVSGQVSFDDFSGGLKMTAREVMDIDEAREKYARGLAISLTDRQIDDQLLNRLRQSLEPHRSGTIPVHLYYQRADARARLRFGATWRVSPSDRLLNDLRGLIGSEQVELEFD", "sequence (P03007 whole entry, chain 2 of 3, further chain)": "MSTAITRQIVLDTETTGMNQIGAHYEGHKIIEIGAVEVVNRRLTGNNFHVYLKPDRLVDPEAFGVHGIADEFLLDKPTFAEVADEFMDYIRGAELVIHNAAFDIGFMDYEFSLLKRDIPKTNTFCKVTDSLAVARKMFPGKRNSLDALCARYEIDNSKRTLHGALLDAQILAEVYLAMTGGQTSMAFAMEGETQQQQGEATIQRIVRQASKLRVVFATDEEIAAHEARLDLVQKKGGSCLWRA", "sequence (P0ABS8 whole entry, chain 3 of 3, further chain)": "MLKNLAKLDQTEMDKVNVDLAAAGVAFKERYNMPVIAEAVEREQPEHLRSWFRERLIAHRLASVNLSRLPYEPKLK", "assay": "cell-based or functional assay"}, "[5]": {"target": "Staphylococcus aureus Pol III-L (α-large, polC gene product) (Staphylococcus aureus) (UniProt P0C1P9)", "sequence (P0C1P9 whole entry)": "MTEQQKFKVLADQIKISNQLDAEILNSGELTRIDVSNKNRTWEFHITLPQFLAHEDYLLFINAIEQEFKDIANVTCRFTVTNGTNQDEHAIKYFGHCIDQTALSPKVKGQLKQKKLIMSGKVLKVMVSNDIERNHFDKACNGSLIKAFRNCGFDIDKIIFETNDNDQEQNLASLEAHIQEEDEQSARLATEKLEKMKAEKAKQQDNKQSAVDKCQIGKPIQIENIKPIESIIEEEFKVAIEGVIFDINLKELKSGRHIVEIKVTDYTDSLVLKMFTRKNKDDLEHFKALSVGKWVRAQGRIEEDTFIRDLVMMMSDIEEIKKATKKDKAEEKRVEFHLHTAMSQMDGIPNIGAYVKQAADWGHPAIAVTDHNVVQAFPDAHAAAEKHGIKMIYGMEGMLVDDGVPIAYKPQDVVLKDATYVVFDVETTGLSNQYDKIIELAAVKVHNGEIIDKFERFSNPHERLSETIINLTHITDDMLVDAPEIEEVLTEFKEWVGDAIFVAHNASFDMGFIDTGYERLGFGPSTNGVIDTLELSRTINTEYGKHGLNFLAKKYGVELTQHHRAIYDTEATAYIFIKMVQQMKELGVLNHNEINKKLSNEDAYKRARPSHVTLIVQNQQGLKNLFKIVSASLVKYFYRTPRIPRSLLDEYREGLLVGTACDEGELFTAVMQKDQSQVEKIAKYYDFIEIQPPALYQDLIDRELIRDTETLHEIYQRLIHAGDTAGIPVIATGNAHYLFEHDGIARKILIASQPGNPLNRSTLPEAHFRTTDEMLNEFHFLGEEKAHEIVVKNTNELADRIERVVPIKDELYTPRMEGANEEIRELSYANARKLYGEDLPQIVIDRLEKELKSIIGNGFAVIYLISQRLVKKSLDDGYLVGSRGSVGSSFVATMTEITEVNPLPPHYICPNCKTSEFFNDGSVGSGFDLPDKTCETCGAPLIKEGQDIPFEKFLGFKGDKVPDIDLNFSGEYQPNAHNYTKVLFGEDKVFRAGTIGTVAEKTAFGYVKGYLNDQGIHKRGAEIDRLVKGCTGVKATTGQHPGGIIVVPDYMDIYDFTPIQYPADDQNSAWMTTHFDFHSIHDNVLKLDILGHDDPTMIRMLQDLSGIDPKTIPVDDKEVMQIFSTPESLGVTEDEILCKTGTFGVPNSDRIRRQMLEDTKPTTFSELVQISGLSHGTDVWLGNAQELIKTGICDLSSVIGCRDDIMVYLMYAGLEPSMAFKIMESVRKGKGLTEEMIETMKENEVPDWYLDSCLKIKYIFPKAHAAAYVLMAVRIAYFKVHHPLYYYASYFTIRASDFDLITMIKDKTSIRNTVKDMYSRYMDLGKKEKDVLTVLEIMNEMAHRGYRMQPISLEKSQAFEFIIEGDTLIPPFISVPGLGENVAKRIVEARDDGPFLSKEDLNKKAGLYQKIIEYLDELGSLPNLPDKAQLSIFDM", "assay": "cell-based or functional assay"}, "[6]": {"system": "singly primed M13mp18 ssDNA", "assay": "Time course of primer extension on singly primed M13mp18 ssDNA, DnaE polymerase", "format": "biochemical", "conditions": "saturating concentration of DnaE", "description": "The S. pyogenes DnaE (α-small) polymerase is more homologous to E. coli a than S. pyogenes PolC. Thus, it seems reasonable to expect that the DnaE polymerase may also function with the β clamp (FIGS. 21A-B). To test DnaE for function with τδδ′ and β, replication reactions contained 70 ng (25 fmol) of 30-mer singly primed M13 mp18 ssDNA, 0.82 μg of S. pyogenes SSB, and 3.3 ng-300 ng of DnaE (25 fmol −2.3 pmol) in 23.5 μl of 20 mM Tris-HCl (pH 7.5), 4% glycerol, 0.1 mM EDTA, 5 mM dithiothreitol (DTT), 40 μg/ml BSA, 2 mM ATP, 8 mM MgCl2, and 60 μM each of dGTP and dCTP. When present, reactions included 43.3 ng of β and 10 ng of τδδ′. Reactions were preincubated for 3 min at 37° C., and then NaCl was added to 40 mM followed by another 2 min at 37° C. DNA synthesis was initiated upon addition of 1.5 μl of 1.5 mM dATP, 0.5 mM [α^32P]-dTTP (specific activity 2,000-4,000 cpm/pmol). Aliquots of 25 μl were removed at the indicated times and quenched with an equal volume (25 μl) of 1% SDS, 40 mM EDTA. One-half of the quenched reaction was analyzed for total deoxynucleotide incorporation using DE81 filter paper and the other half was analyzed on a 0.8% neutral agarose gel. The effect of TMAU was also examined, in which 100 μM TMAU in DMSO (2% DMSO final concentration) was present. In this case, replication was allowed to proceed for 1 min before being quenched with […] of 1% SDS, 40 mM EDTA. […]"}}, "note": "Several values for one entry are separate records, joined by “and”; a condition that tells them apart may be missing. Identical values can stand only once."}
{"molecule": "[Cl-].[K+]", "note": "[KCl]", "values": [{"measurement": "Expected characteristics: inhibition by 0.15 M KCl", "setting": "[1]", "value": "not inhibited (Not inhibited is defined as greater than 75% remaining activity)"}, {"measurement": "Expected characteristics: inhibition by 0.15 M KCl", "setting": "[2]", "value": "not inhibited (Not inhibited is defined as greater than 75% remaining activity)"}, {"measurement": "Expected characteristics: inhibition by 0.15 M KCl", "setting": "[3]", "value": "not inhibited (Not inhibited is defined as greater than 75% remaining activity)"}]}
{"molecule": "Escherichia coli beta subunit of DNA polymerase III holoenzyme (from UniProt P0A988 1-366)", "values": [{"measurement": "Total DNA synthesis on polydA-oligodT, lane 6 (E. coli Pol III core with E. coli beta; lane 5 without beta 0.97 pmol)", "setting": "[4]", "value": 28.1, "unit": "pmol"}, {"measurement": "stimulation of DNA synthesis by E. coli core on linear polydA-oligodT", "setting": "[4]", "value": "> 10", "unit": "fold"}]}
{"molecule": "Staphylococcus aureus beta subunit (dnaN gene product) (protein) MMEFTIKRDYFITQLNDTLKAISPRTTLPILTGIKIDAKEHEVILTGSDSEISIEITIPKTVDGEDIVNISETGSVVLPGRFFVDIIKKLPGKDVKLSTNEQFQTLITSGHSEFNLSGLDPDQYPLLPQVSRDDAIQLSVKVLKNVIAQTNFAVSTSETRPVLTGVNWLIQENELICTATDSHRLAVRKLQLEDVSENKNVIIPGKALAELNKIMSDNEEDIDIFFASNQVLFKVGNVNFISRLLEGHYPDTTRLFPENYEIKLSIDNGEFYHAIDRASLLAREGGNNVIKLSTGDDVVELSSTSPEIGTVKEEVDANDVEGGSLKISFNSKYMMDALKAIDNDEVEVEFFGTMKPFILKPKGDDSVTQLILPIRTY", "values": [{"measurement": "Total DNA synthesis on polydA-oligodT, lane 4 (E. coli Pol III core with S. aureus beta; lane 3 without beta 5.1 pmol)", "setting": "[4]", "value": 35.5, "unit": "pmol"}, {"measurement": "stimulation of DNA synthesis by E. coli core on linear polydA-oligodT", "setting": "[4]", "value": 5, "unit": "fold"}, {"measurement": "Total DNA synthesis on polydA-oligodT, lane 2 (Pol III-L with S. aureus beta; lane 1 without beta 4.4 pmol)", "setting": "[5]", "value": 30.3, "unit": "pmol"}, {"measurement": "stimulation of DNA synthesis by Pol III-L on linear polydA-oligodT", "setting": "[5]", "value": "5 fold and 6 fold"}]}
{"molecule": "DnaE polymerase: S. pyogenes DnaE (α-small) polymerase encoded by dnaE, SEQ. ID. No. 20 (protein) MFAQLDTKTVYSFMDSLIDLNHYFERAKQFGYHTIGIMDKDNLYGAYHFIKGCQKNGLQPVLGLEIEILYQERQVLLNLIAQNTQGYHQLLKISTAKMSGKLHMDYFCQHLEGIAVIIPSKGWSDTLVVPFDYYMGVDQYTDLSHMDSKRQLIPLRTVRYFAQDDMETLHMLHAIRDNLSLAETPVVESDQELADCQQLTAFYQTHCPQALQNLEDLVSGIYYDFDTNLKLPHFNRDKSAKQELQDLTEAGLKEKGLWKEPYQSRLLHELVIISDMGFDDYFLIVWDLLRFGRSKGYYMGMGRGSAAGSLVAYALNITGIDPVQHDLLFERFLNKERYSMPDIDIDLPDIYRSEFLRYVRNRYGSDHSAQIVTFSTFGPKQAIRDVFKRFGVPEYELTNLTKKIGFKDSLATVYEKSISFRQVINSRTEFQKAFAIAKRIEGNPRQTSIHAAGIVMSDDALTNHIPLKSGDDMMITQYDAHAVEANGLLKMDFLGLRNLTFVQKMQEKVAKDYGCQIDITAIDLEDPQTLALFAKGDTKGIFQFEQNGAINLLKRIKPQRFEEIVATTSLNRPGASDYTTNFIKRREGQEKIDLIDPVIAPILEPTYGIMLYQEQVMQIAQVYAGFTLGKADLLRRAMSKKNLQEMQKMEEDFIASAKHLGRAEETARGLFKRMEKFAGYGFNRSHAFAYSALAFQLAYFKAHYPAVFYDIMMNYSSSDYITDALESDFQVAQVTINSIPYTDKIEASKIYMGLKNIKGLPRDFAYWIIEQRPFNSVEDFLTRTPEKYQKKVFLEPLIKIGLFDCFEPNRKKILDNLDGLLVFVNELGSLFSDSSFSWVDTKDYSVTEKYSLEQEIVGVGMSKHPLIDIAEKSTQTFTPISQLVKESEAVVLIQIDSIRIIRTKTSGQQMAFLSVNDTKKKLDVTLFPQEYAIYKDQLKEGEFYYLKGRIKERDHRLQMVCQQVQMAISQKYWLLVENHQFDSQISEILGAFPGTTPVVIHYQKNKETIALTKIQVTENLKEKLRPFVLKTVFR", "values": [{"measurement": "Speed of primer extension", "setting": "[6]", "value": "at least 60 nucleotides/s"}, {"measurement": "Time to complete M13mp18 primed ssDNA template", "setting": "[6]; absence of β, presence of τδδ′", "value": "≤ 2", "unit": "min"}]}
